The supplement of paper PMC10567573
± gives the standard deviation.

Experiment: protein stability index of a GFP-peptide fusion (GPS, HEK-293T) (PSI 1-6); higher = more stable
[1] = treatment: DMSO, c terminus: a fixed tail appended
[2] = treatment: MLN4924 1 uM, 8 h, c terminus: a fixed tail appended
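Further: 24-mer peptide tiles fused after GFP, lentivirally expressed, FACS-sorted into six equal bins by GFP/DsRed ratio, decoded by Illumina sequencing, PSI is the read-weighted mean bin number.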

| Sequence | protein stability index [1] | protein stability index [2] | protein stability index (treatment: DMSO, c terminus: native) | protein stability index (treatment: MLN4924 1 uM, 8 h, c terminus: native) |
| --- | --- | --- | --- | --- |
| GTWVTFGGQITDEMAEQLMTLAYD [KCNAB2] | 2.17 ± 0.37 | 2.28 ± 0.29 | – | – |
| DAAVVRPGFLSTAEEETLSRELEP [ALKBH7] | 5.53 ± 0.063 | 5.42 ± 0.17 | – | – |
| KGAVPRSIPNLAEVKKKGKMKKLG [HDAC6] | 4.51 ± 0.36 | 4.35 ± 0.5 | – | – |
| APFLSQADDPDDGPVPGTPGLPGS [SPNS1] | 5.55 ± 0.34 | 5.43 ± 0.21 | – | – |
| LLDLQPDFSSGGAAAAAAPAPPPP [SNAP91] | 4.68 ± 0.23 | 4.77 ± 0.22 | – | – |
| NITVQKKVSQWWERLTKQEKRPLF [HACD3] | 2.65 ± 0.18 | 2.91 ± 0.13 | – | – |
| AIRRFQSMPVRLLGHSPVLRNITN [CDC25B] | 2.42 ± 0.35 | 2.24 ± 0.22 | – | – |
| ALNWTDIPVAMEHQPPYIIAVLPR [VPS39] | 2.23 ± 0.38 | 2.25 ± 0.29 | – | – |
| IGSSVMAASLVTMGIVNLNIHMNF [SLC2A12] | 3.05 ± 0.24 | 3.13 ± 0.17 | – | – |
| LRQQLVVSKELRMYDEKAHEWKSL [KLHL13] | 2.93 ± 0.11 | 2.98 ± 0.15 | – | – |
| ALDEIKLLKCVRESDPSDPNKDMV [SRPK2] | 4.75 ± 0.23 | 4.54 ± 0.26 | – | – |
| VIRLKQEQHVHNEKSVLKEVSHPF [PRKX] | 3.36 ± 0.062 | 3.62 ± 0.36 | – | – |
| MAAGGRMEDGSLDITQSIEDDPLL [TMEM192] | 4.7 ± 0.29 | 4.87 ± 0.16 | – | – |
| IQSRVQELHPESGEEAVTLVEDMQ [ZNF263] | 5.42 ± 0.18 | 5.44 ± 0.11 | – | – |
| PWVKELQDSKEMKQLLDSKIGFEI [ZNF449] | 2.9 ± 0.49 | 3.01 ± 0.65 | – | – |
| QYVTFLRSFSDKQKISLLHSCTCV [ALG2] | 3.1 ± 0.51 | 2.69 ± 0.48 | – | – |
| SDGTDEPESKEPVEKEEEPDPEPP [SMG5] | 5.67 ± 0.23 | 5.62 ± 0.18 | – | – |
| DKLRALKSQRQPRTSPSCAFRSDD [CDC14A] | 4.14 ± 0.23 | 4.15 ± 0.11 | – | – |
| DYSASEYRWHINFTTFFIDCMAAL [SCD] | 2.54 ± 0.17 | 2.63 ± 0.47 | – | – |
| DSKSLKTHQTQPGIRRARDKALSG [NET1] | 4.63 ± 0.16 | 4.7 ± 0.18 | – | – |
| VEWAKYIPAFCELPLDDQVALLRA [HNF4A] | 2.42 ± 0.64 | 2.44 ± 0.42 | – | – |
| SSASSEQGLLGRSPPTRPVPGHRS [SPRY1] | 4.82 ± 0.27 | 4.8 ± 0.12 | – | – |
| CDDYFFIAHRGERRGIGGIFFDDL [CPOX] | 2.16 ± 0.31 | 1.96 ± 0.45 | – | – |

| Sequence | protein stability index [1] | protein stability index [2] | protein stability index (treatment: DMSO, c terminus: native) | protein stability index (treatment: MLN4924 1 uM, 8 h, c terminus: native) |
| --- | --- | --- | --- | --- |
| HGCEYSCVNMDRSFACQCPEGHVL [MATN2] | 3.57 ± 0.29 | 3.61 ± 0.26 | – | – |
| FRLKTINLQSLINNEIPDCYTFSV [MCOLN1] | 2.76 ± 0.41 | 2.51 ± 0.39 | – | – |
| PLGNTPMMNQSMMGMNMNIGMSAA [CLINT1] | 3.07 ± 0.21 | 2.9 ± 0.24 | – | – |
| HAIYSLSYPMRRSYRYKLLNWAYQ [STEAP1] | 2.33 ± 0.71 | 2.63 ± 0.61 | – | – |
| EDQAEAWGCSCCPPETKHQALSGT [TSPAN10] | 4.71 ± 0.31 | 4.67 ± 0.18 | – | – |
| PNPSKVLQQLLVLQPEQQLNIYKT [CDS1] | 2.38 ± 0.33 | 2.44 ± 0.3 | – | – |
| PAMAASKALGSDLDSSLASLVGNL [SNAP91] | 4.06 ± 0.34 | 3.95 ± 0.34 | – | – |
| TGVYPRCLHASQWPVCAACPVRKF [BRF1] | 2.49 ± 0.17 | 2.45 ± 0.24 | – | – |
| TNVRLQPAATWNLEEKRLTWRLPD [FCHO1] | 3.27 ± 0.32 | 3.34 ± 0.24 | – | – |
| QSSGKVMYFSSLFPYVVLACFLVR [SLC6A17] | 2.6 ± 0.76 | 2.41 ± 0.24 | – | – |
| VVGLHAASKDPREVREARDHKEPK [EHMT1] | 5.06 ± 0.13 | 5.11 ± 0.052 | – | – |
| LGMVGLFGTIISGIQLLIVEYKDI [SLC35F2] | 3.16 ± 0.42 | 3.53 ± 0.41 | – | – |
| MVSALRGAPLIRVHSSPVSSPSVS [SPACA3] | 2.85 ± 0.39 | 3.08 ± 0.3 | – | – |
| NRVSAIIFSLATEWVISTGHDKCV [WDFY1] | 2.96 ± 0.23 | 2.89 ± 0.4 | – | – |
| LPRGATAAVLAPDSSNASSEPSS [SEPHS2] | – | – | 5.31 ± 0.21 | 5.53 ± 0.17 |
| SAWKTVACGGTRDQLFMQEKARQL [MYBL2] | 3.21 ± 0.33 | 3.33 ± 0.28 | – | – |
| LRVHLKMVDSFHRTSLQYGIMCLK [PPFIA4] | 2.99 ± 0.047 | 2.9 ± 1 | – | – |
| KFSGLYILSFTVIMVGFILYCSTP [SLC35F2] | 3.22 ± 0.4 | 3.17 ± 0.24 | – | – |
| GQRFYSRVLSPLHRGPSGHTEASA | 3.74 ± 0.045 | 3.79 ± 0.29 | – | – |
| GDLSPGHGASAPSVSREARQTVPP [PWWP2B] | 5.03 ± 0.17 | 5.25 ± 0.077 | – | – |
| VYSLQDFDTLATVGTGTFGRVHLV [PRKX] | 2.42 ± 0.079 | 2.42 ± 0.37 | – | – |
| GPLFNFDVHDDVRLLSDATVEKDE [FAM50A] | 5.23 ± 0.17 | 5.43 ± 0.11 | – | – |
| VQIKTWFQNRRMKHKRQMQDPQLH [VENTX] | 2.55 ± 0.4 | 2.52 ± 0.34 | – | – |

| Sequence | protein stability index [1] | protein stability index [2] | protein stability index (treatment: DMSO, c terminus: native) | protein stability index (treatment: MLN4924 1 uM, 8 h, c terminus: native) |
| --- | --- | --- | --- | --- |
| SRVMFLLVDKETDKRHVEQKIQFK [PDZK1] | 2.62 ± 0.32 | 2.88 ± 0.26 | – | – |
| CVTLMQGHEGSVSSCHFARDSSFL [WDR88] | 2.28 ± 0.57 | 2.39 ± 0.13 | – | – |
| GTAITSQYLAERYKVNTPMLQSFI [SLC35F2] | 2.58 ± 0.57 | 2.26 ± 0.38 | – | – |
| GGQITDEMAEQLMTLAYDNGINLF [KCNAB2] | 2.79 ± 0.17 | 2.9 ± 0.35 | – | – |
| RQEAIYEMSRGEQDLIEDLKLARK [NET1] | 4.69 ± 0.18 | 4.79 ± 0.099 | – | – |
| TLHGVVNESTVCLMSYERRQILHL [TENT5D] | 2.35 ± 0.54 | 2.44 ± 0.4 | – | – |
| ALKKSADWVSDWSSRPENIPPKEF [BNIP3L] | 3.55 ± 0.23 | 3.77 ± 0.18 | – | – |
| SDSGDGVYAGRPLSVIQMVAFLEQ [FBXO34] | 2.92 ± 0.15 | 3.02 ± 0.34 | – | – |
| FDDYSATLPLTLIVILENIAVAWI [SLC6A17] | 2.69 ± 0.44 | 3.28 ± 0.71 | – | – |
| VCTDTDRWSLISLSNKNGKNVELK [TENT5C] | 3.46 ± 0.27 | 3.57 ± 0.17 | – | – |
| GDIASGYHYGVASCEACKAFFKRT [ESRRG] | 2.76 ± 0.38 | 3.02 ± 0.41 | – | – |
| CHRRYSCAHCRAHLANHDDLISKS [YPEL3] | 2.44 ± 0.46 | 2.81 ± 0.4 | – | – |
| HSSPVDLKIPQVRGMDLSWESRTG [LCOR] | 3.43 ± 0.33 | 3.65 ± 0.31 | – | – |
| EVDPTGHSFVLVTSLGLTYDGMLS [MAGEA10] | 2.51 ± 0.47 | 2.52 ± 0.51 | – | – |
| DLLTFVQNLCKGLSQPTTNLVAGC [NEUROD6] | 3 ± 1 | 2.47 ± 0.33 | – | – |
| RARDSPEPGAGLGIGDMAFEGDMG [PSD2] | 4.73 ± 0.13 | 4.91 ± 0.15 | – | – |
| ETRAEDPPWFEGLESRFQSKSGYL [DFFB] | 3.56 ± 0.063 | 3.63 ± 0.069 | – | – |
| SNTRDRYGRSWESYSSCGDFHYCD [RBMY1A1] | 2.73 ± 0.27 | 2.91 ± 0.54 | – | – |
| GGLIYWIGLTKAGMEGDWSWVDDT [CD207] | 2.12 ± 0.7 | 3.07 ± 1.4 | – | – |
| EERQAAQNECQVLKLLNHPNVIEY [NEK8] | 4.01 ± 0.16 | 4.29 ± 0.11 | – | – |
| LLSGAFKKRRLPPVHIHPAFARQA [FOXJ1] | 2.21 ± 0.1 | 2.54 ± 0.36 | – | – |
| ESLEDVAMYISQEEWGHQDPSKRA [ZNF263] | 4.99 ± 0.069 | 5.03 ± 0.26 | – | – |
| QQLNDYEQLLDVKLALDMEISAYR [LMNB1] | 2.95 ± 0.32 | 2.9 ± 0.31 | – | – |

| Sequence | protein stability index [1] | protein stability index [2] | protein stability index (treatment: DMSO, c terminus: native) | protein stability index (treatment: MLN4924 1 uM, 8 h, c terminus: native) |
| --- | --- | --- | --- | --- |
| RVAIAHYQDDPDLRFLLDQVQLGL [TSPAN10] | 2.28 ± 0.25 | 2.36 ± 0.25 | – | – |
| RYCDSILREMLSKKHAAYAWPFYK [BRD3] | 2.07 ± 0.48 | 2.02 ± 0.26 | – | – |
| AGGYVDVVKVLLESGASIEDHNEN [ANKRD17] | 3.08 ± 0.24 | 3.12 ± 0.36 | – | – |
| SSRFSSSRLLGSASPSSSVRLGSF [PRPH] | 2.82 ± 0.24 | 2.83 ± 0.18 | – | – |
| PDRGSPEYRQRRERNNIAVRKSRD [CEBPD] | 5.03 ± 0.37 | 5.35 ± 0.12 | – | – |
| LRHFFLVEDLVDSLKLALLFYILT [RTN2] | 2.79 ± 0.79 | 2.45 ± 0.15 | – | – |
| RVKLTKRSGHTQTDYINASFMDGY [PTPN9] | 2.75 ± 0.14 | 2.87 ± 0.27 | – | – |
| MNGDSRAAVVTSPPPTTAPHKERY [ADD1] | 4.89 ± 0.26 | 5.07 ± 0.22 | – | – |
| EEQVILTEKDLLEDGFGEHPFYHC [SAT1] | 3.95 ± 0.24 | 4.15 ± 0.42 | – | – |
| SLLQSAWMEILILGVVYRSLSFED [ESRRG] | 3.09 ± 0.26 | 3.07 ± 0.22 | – | – |
| DIVLMAQALEKIFLQKVAQMPQEE [BRD3] | 2.36 ± 1.6 | 3 ± 1 | – | – |
| VLEYRRTNFEGPPRLKEDQPWMVI [FSD1] | 2.12 ± 0.44 | 2.35 ± 0.39 | – | – |
| EGSREHAFQITGVWDASRAPRGTP [PLEKHN1] | 4.34 ± 0.27 | 4.39 ± 0.26 | – | – |
| KLTLENFYSNLILQHEERETRQKK [STK38L] | 3.24 ± 0.39 | 3.29 ± 0.46 | – | – |
| RLRPLTLSTPKPLVDFCNKPILLH [GMPPB] | 2.31 ± 0.14 | 2.46 ± 0.51 | – | – |
| LNEMRDQYEKMAEKNRKDAEDWFF [KRT17] | 4.14 ± 0.2 | 4.1 ± 0.19 | – | – |
| SAVVGDVLVLTKPLGTQVAVNAHQ [SEPHS2] | 2.95 ± 0.3 | 3.1 ± 0.31 | – | – |
| AQQDLAPDPDAWLRALGELLRRDL [FANCE] | 3.11 ± 0.4 | 3.15 ± 0.3 | – | – |
| RLFQVVGKTDDTLALLNLACMMTI [TMEM175] | 2.92 ± 0.53 | 2.65 ± 0.56 | – | – |
| FRRFAVHGDARATGREMHGKNWSK [TPPP] | 3.62 ± 0.12 | 3.65 ± 0.33 | – | – |
